# Test results: FireProtDB (doi:10.1074/jbc.m110728200)
# B1: Lysozyme C, P61626 (parent)
# chain: MKALIVLGLVLLSVTVQGKVFERCELARTLKRLGMDGYRGISLANWMCLAKWESGYNTRATNYNAGDRSTDYGIFQINSRYWCNDGKTPGAVNACHLSCSALLQDNIADAVACAKRVVRDPQGIRAWVAWRNRCQNRDVRQYVQGCGV
# Variants of: B1
# Settings: Homo sapiens; pH 2.65; Thermal; DSC; Gly-HCl 0.05 M; structure 1LZ1; whole UniProt chain shown
Variant,Tm [°C],unfolding enthalpy (calorimetric) [kcal/mol],unfolding enthalpy (van 't Hoff) [kcal/mol]
V92N,63,110,114

# Same assay, conditions: Homo sapiens; pH 2.7; 64.9 °C; Thermal; DSC; Gly-HCl 0.05 M; structure 1LZ1; whole UniProt chain shown
Variant,ddG of mutation (higher = less stable) [kcal/mol],heat capacity change of unfolding [kcal/mol/K],unfolding enthalpy (calorimetric) [kcal/mol]
V92N,0.33,1.1,115
V92R,0.07,1.67,104
V92Y,0.24,1.65,107
V20D,1.43,1.58,111
V20Y,,1.82,106
V128Y,0.14,,108
V128R,-0.88,,101

# Same assay, conditions: Homo sapiens; pH 2.7; Thermal; DSC; Gly-HCl 0.05 M; structure 1LZ1; whole UniProt chain shown
Variant,Tm [°C],"change of melting temperature, mutant - wild type (higher = more stable) [°C]"
V92N,63.9,-1
V92R,64.6,-0.3
V92Y,64,-0.9
V20D,60.4,-4.5
V128Y,64.4,-0.5
V128R,67.8,2.9

# Same assay, conditions: Homo sapiens; pH 2.84; Thermal; DSC; Gly-HCl 0.05 M; structure 1LZ1; whole UniProt chain shown
Variant,Tm [°C],unfolding enthalpy (calorimetric) [kcal/mol],unfolding enthalpy (van 't Hoff) [kcal/mol]
V92N,66.2,114,116

# Same assay, conditions: Homo sapiens; pH 2.66; Thermal; DSC; Gly-HCl 0.05 M; structure 1LZ1; whole UniProt chain shown
Variant,Tm [°C],unfolding enthalpy (calorimetric) [kcal/mol],unfolding enthalpy (van 't Hoff) [kcal/mol]
V92R,63.8,102,100
V20D,59.6,103,99.9
V128Y,63.3,106,105

# Same assay, conditions: Homo sapiens; pH 2.85; Thermal; DSC; Gly-HCl 0.05 M; structure 1LZ1; whole UniProt chain shown
Variant,Tm [°C],unfolding enthalpy (calorimetric) [kcal/mol],unfolding enthalpy (van 't Hoff) [kcal/mol]
V92R,67.3,108,105

# Same assay, conditions: Homo sapiens; pH 3; Thermal; DSC; Gly-HCl 0.05 M; structure 1LZ1; whole UniProt chain shown
Variant,Tm [°C],unfolding enthalpy (calorimetric) [kcal/mol],unfolding enthalpy (van 't Hoff) [kcal/mol]
V92R,69.5,112,109

# Same assay, conditions: Homo sapiens; pH 3.18; Thermal; DSC; Gly-HCl 0.05 M; structure 1LZ1; whole UniProt chain shown
Variant,Tm [°C],unfolding enthalpy (calorimetric) [kcal/mol],unfolding enthalpy (van 't Hoff) [kcal/mol]
V92R,72.8,117,114
V128Y,72.2,120,121

# Same assay, conditions: Homo sapiens; pH 3.22; Thermal; DSC; Gly-HCl 0.05 M; structure 1LZ1; whole UniProt chain shown
Variant,Tm [°C],unfolding enthalpy (calorimetric) [kcal/mol],unfolding enthalpy (van 't Hoff) [kcal/mol]
V92R,73.2,118,116

# Same assay, conditions: Homo sapiens; pH 2.67; Thermal; DSC; Gly-HCl 0.05 M; structure 1LZ1; whole UniProt chain shown
Variant,Tm [°C],unfolding enthalpy (calorimetric) [kcal/mol],unfolding enthalpy (van 't Hoff) [kcal/mol]
V92Y,63.3,104,104

# Same assay, conditions: Homo sapiens; pH 3.02; Thermal; DSC; Gly-HCl 0.05 M; structure 1LZ1; whole UniProt chain shown
Variant,Tm [°C],unfolding enthalpy (calorimetric) [kcal/mol],unfolding enthalpy (van 't Hoff) [kcal/mol]
V92Y,70,115,116

# Same assay, conditions: Homo sapiens; pH 3.21; Thermal; DSC; Gly-HCl 0.05 M; structure 1LZ1; whole UniProt chain shown
Variant,Tm [°C],unfolding enthalpy (calorimetric) [kcal/mol],unfolding enthalpy (van 't Hoff) [kcal/mol]
V92Y,73.3,120,120
V20Y,72,120,120

# Same assay, conditions: Homo sapiens; pH 3.26; Thermal; DSC; Gly-HCl 0.05 M; structure 1LZ1; whole UniProt chain shown
Variant,Tm [°C],unfolding enthalpy (calorimetric) [kcal/mol],unfolding enthalpy (van 't Hoff) [kcal/mol]
V92Y,74.1,122,123

# Same assay, conditions: Homo sapiens; pH 2.96; Thermal; DSC; Gly-HCl 0.05 M; structure 1LZ1; whole UniProt chain shown
Variant,Tm [°C],unfolding enthalpy (calorimetric) [kcal/mol],unfolding enthalpy (van 't Hoff) [kcal/mol]
V20D,64.9,112,108

# Same assay, conditions: Homo sapiens; pH 3.01; Thermal; DSC; Gly-HCl 0.05 M; structure 1LZ1; whole UniProt chain shown
Variant,Tm [°C],unfolding enthalpy (calorimetric) [kcal/mol],unfolding enthalpy (van 't Hoff) [kcal/mol]
V20D,65.7,113,109
V128R,72.8,114,116

# Same assay, conditions: Homo sapiens; pH 3.14; Thermal; DSC; Gly-HCl 0.05 M; structure 1LZ1; whole UniProt chain shown
Variant,Tm [°C],unfolding enthalpy (calorimetric) [kcal/mol],unfolding enthalpy (van 't Hoff) [kcal/mol]
V20D,68,116,113

# Same assay, conditions: Homo sapiens; pH 3.3; Thermal; DSC; Gly-HCl 0.05 M; structure 1LZ1; whole UniProt chain shown
Variant,Tm [°C],unfolding enthalpy (calorimetric) [kcal/mol],unfolding enthalpy (van 't Hoff) [kcal/mol]
V20D,70.2,120,118

# Same assay, conditions: Homo sapiens; pH 2.83; Thermal; DSC; Gly-HCl 0.05 M; structure 1LZ1; whole UniProt chain shown
Variant,Tm [°C],unfolding enthalpy (calorimetric) [kcal/mol],unfolding enthalpy (van 't Hoff) [kcal/mol]
V20Y,65.9,108,110

# Same assay, conditions: Homo sapiens; pH 2.91; Thermal; DSC; Gly-HCl 0.05 M; structure 1LZ1; whole UniProt chain shown
Variant,Tm [°C],unfolding enthalpy (calorimetric) [kcal/mol],unfolding enthalpy (van 't Hoff) [kcal/mol]
V20Y,67.4,111,112

# Same assay, conditions: Homo sapiens; pH 3.2; Thermal; DSC; Gly-HCl 0.05 M; structure 1LZ1; whole UniProt chain shown
Variant,Tm [°C],unfolding enthalpy (calorimetric) [kcal/mol],unfolding enthalpy (van 't Hoff) [kcal/mol]
V20Y,72.3,119,120

# Same assay, conditions: Homo sapiens; pH 3.24; Thermal; DSC; Gly-HCl 0.05 M; structure 1LZ1; whole UniProt chain shown
Variant,Tm [°C],unfolding enthalpy (calorimetric) [kcal/mol],unfolding enthalpy (van 't Hoff) [kcal/mol]
V20Y,73,121,122

# Same assay, conditions: Homo sapiens; pH 2.98; Thermal; DSC; Gly-HCl 0.05 M; structure 1LZ1; whole UniProt chain shown
Variant,Tm [°C],unfolding enthalpy (calorimetric) [kcal/mol],unfolding enthalpy (van 't Hoff) [kcal/mol]
V128Y,69.3,114,114

# Same assay, conditions: Homo sapiens; pH 3.38; Thermal; DSC; Gly-HCl 0.05 M; structure 1LZ1; whole UniProt chain shown
Variant,Tm [°C],unfolding enthalpy (calorimetric) [kcal/mol],unfolding enthalpy (van 't Hoff) [kcal/mol]
V128Y,75.4,125,125

# Same assay, conditions: Homo sapiens; pH 2.8; Thermal; DSC; Gly-HCl 0.05 M; structure 1LZ1; whole UniProt chain shown
Variant,Tm [°C],unfolding enthalpy (calorimetric) [kcal/mol],unfolding enthalpy (van 't Hoff) [kcal/mol]
V128R,69.3,108,110

# Same assay, conditions: Homo sapiens; pH 3.15; Thermal; DSC; Gly-HCl 0.05 M; structure 1LZ1; whole UniProt chain shown
Variant,Tm [°C],unfolding enthalpy (calorimetric) [kcal/mol],unfolding enthalpy (van 't Hoff) [kcal/mol]
V128R,75,117,120
